Laboratory results published in US20240294646A1.

Assays:
[1] = biological target: FcγRIIb, soluble extracellular domain (UniProt P31994); test: SPR, Protocol 2; ratio of the fold on FcγRIIb to the fold on FcγRIIaR
[2] = biological target: FcγRIIaR, soluble extracellular domain (UniProt P12318); test: SPR, Protocol 2; fold over wild-type v16463
[3] = biological target: FcγRIIb, soluble extracellular domain (UniProt P31994); test: SPR, Protocol 2; fold over wild-type v16463
[4] = biological target: FcγRIIb, soluble extracellular domain (UniProt P31994); test: SPR; IIb-Fold/IIaR-Fold (FcγRIIb against FcγRIIaR), vs. wild-type v16463
[5] = biological target: FcγRIIaR, soluble extracellular domain (UniProt P12318); test: SPR; fold change in affinity over control v27293 (Strategy 1 Launching Module)
[6] = biological target: FcγRIIb, soluble extracellular domain (UniProt P31994); test: as above
[7] = biological target: FcγRIIb, soluble extracellular domain (UniProt P31994); test: SPR; IIb-Fold/IIaR-Fold (FcγRIIb against FcγRIIaR), relative to control v27293
[8] = biological target: FcγRIIaR, soluble extracellular domain (UniProt P12318); test: SPR (General Methods Protocol 2): one-armed antibody captured on immobilised HER2, soluble receptor as analyte
[9] = biological target: FcγRIIb, soluble extracellular domain (UniProt P31994); test: as above
[10] = biological target: FcγRIIaR, soluble extracellular domain (UniProt P12318); test: SPR; fold change in affinity over wild-type v16463
[11] = biological target: FcγRIIb, soluble extracellular domain (UniProt P31994); test: SPR; fold change in affinity over wild-type v16463
[12] = biological target: Soluble FcγRIIb extracellular domain with C-terminal 10xHis tag (UniProt P31994); test: SPR (Biacore 4000); variant captured on HER2, receptor in solution
[13] = biological target: Soluble FcγRIIaR extracellular domain with C-terminal 10xHis tag (UniProt P12318); test: as above
[14] = biological target: Soluble FcγRIIb extracellular domain with C-terminal 10xHis tag (UniProt P31994); test: SPR; KD of WT v16463 / KD of variant
[15] = biological target: Soluble FcγRIIaR extracellular domain with C-terminal 10xHis tag (UniProt P12318); test: SPR; KD of WT v16463 / KD of variant
[16] = biological target: Soluble FcγRIIb extracellular domain with C-terminal 10xHis tag (UniProt P31994); test: SPR; fold affinity relative to control v27293
[17] = biological target: Soluble FcγRIIaR extracellular domain with C-terminal 10xHis tag (UniProt P12318); test: SPR; fold affinity relative to control v27293
[18] = biological target: Soluble FcγRIIb extracellular domain with C-terminal 10xHis tag (UniProt P31994); test: SPR; IIb selectivity relative to control v27293
[19] = biological target: Soluble FcγRIIb extracellular domain with C-terminal 10xHis tag (UniProt P31994); test: SPR; IIb-Fold / IIaR-Fold (FcγRIIb against FcγRIIaR)
[20] = biological target: FcγRIIaR, soluble extracellular domain (UniProt P12318); test: SPR; FcγRIIaR affinity fold relative to control v27294
[21] = biological target: FcγRIIb, soluble extracellular domain (UniProt P31994); test: SPR; FcγRIIb affinity fold relative to control v27294
[22] = biological target: FcγRIIb, soluble extracellular domain (UniProt P31994); test: SPR; IIb-Fold/IIaR-Fold relative to control v27294
[23] = biological target: FcγRIIaR, soluble extracellular domain (UniProt P12318); test: SPR (Biacore 4000, Protocol 2): antibody captured on immobilised HER2, soluble receptor as analyte
[24] = biological target: FcγRIIb, soluble extracellular domain (UniProt P31994); test: as above
[25] = biological target: FcγRIIaR, soluble extracellular domain (UniProt P12318); test: SPR; fold change in FcγRIIaR affinity over WT v16463
[26] = biological target: FcγRIIb, soluble extracellular domain (UniProt P31994); test: SPR; IIb-Fold/IIaR-Fold (FcγRIIb over FcγRIIaR, vs WT v16463)
[27] = biological target: FcγRIIb, soluble extracellular domain (UniProt P31994); test: SPR; fold change in FcγRIIb affinity over WT v16463
[28] = biological target: Biotinylated FcγRIIb extracellular domain-Fc fusion (human) (UniProt P31994); test: competition electrochemiluminescence (MSD), antibody on HER2-coated plate, biotinylated FcγRIIb-Fc; competitor FcγRIIaR-Fc at 10x
[29] = biological target: Soluble FcγRIIb extracellular domain with C-terminal 10×His tag (UniProt P31994); test: SPR; KD of WT v16463 / KD of variant
[30] = biological target: Soluble FcγRIIaR extracellular domain with C-terminal 10×His tag (UniProt P12318); test: SPR; KD of WT v16463 / KD of variant
[31] = biological target: Soluble FcγRIIb extracellular domain with C-terminal 10×His tag (UniProt P31994); test: SPR (Biacore 4000), antibody captured on immobilised HER2, receptor as analyte
[32] = biological target: Soluble FcγRIIaR extracellular domain with C-terminal 10×His tag (UniProt P12318); test: as above
[33] = biological target: Soluble FcγRIIb extracellular domain with C-terminal 10×His tag (UniProt P31994); test: SPR; IIb-Fold / IIaR-Fold (FcγRIIb against FcγRIIaR)
[34] = biological target: FcγRIIb, soluble extracellular domain (UniProt P31994); test: SPR, Protocol 2; ratio of the fold on FcγRIIb to the fold on FcγRIIaR; the wild-type reference itself
[35] = biological target: FcγRIIaR, soluble extracellular domain (UniProt P12318); test: SPR, Protocol 2; the wild-type reference itself
[36] = biological target: FcγRIIb, soluble extracellular domain (UniProt P31994); test: SPR, Protocol 2; the wild-type reference itself
FcγRIIb = FcγRIIb (UniProt P31994); test: SPR (Biacore 4000, Protocol 2), one-armed antibody captured on immobilised HER2, soluble FcγR as analyte
FcγRIIaR = FcγRIIaR (UniProt P12318); test: as above

With “Variant 18370 (S239D), one-armed trastuzumab antibody with heterodimeric IgG1 Fc” the IIb/IIaR Selectivity (IIb-Fold/IIaR-Fold) [1] was 1.2, the IIaR-fold (fold change in affinity over wild-type) [2] was 3.8 fold and the IIb-fold (fold change in affinity over wild-type) [3] was 4.39 fold.
“Variant 27293, Strategy 1 Launching Module 1 (A_G236N_G237A / B_G236D_G237F_S239D_S267V_H268D_Template 1), one-armed trastuzumab antibody” showed an IIb/IIaR Selectivity vs. WT [4] of 11.8 fold, an IIaR-Fold vs. Control [5] of 1 fold and an IIb-Fold vs. Control [6] of 1 fold. For the same substance, the IIb/IIaR Selectivity vs. Control [7] was 1 fold, the Kd [8] was 8.8 nM and the Kd [9] was 3.5 nM. It also gave an IIaR-Fold vs. WT [10] of 35 fold and an IIb-Fold vs. WT [11] of 415 fold.
“v26133 (A_N236I_strat1), one-armed trastuzumab antibody” gave a Kd [12] of 2.5 nM, a Kd [13] of 8.3 nM and an IIb-Fold [14] of 585 fold. The IIaR-fold [15] was 37.3 fold, the IIb-Fold wrt Control [16] was 1.4 fold and the IIaR-Fold wrt Control [17] was 1.1 fold. The IIb Selectivity Fold wrt Control [18] was 1.3 fold and the IIb Selectivity [19] was 15.7 fold.
With “Variant 26725 (A_D270K_strat2), one-armed trastuzumab antibody with heterodimeric IgG1 Fc” the IIaR-Fold wrt Control [20] was 0.3 fold, the IIb-Fold wrt Control [21] was 0.3 fold and the IIb Selectivity Fold wrt Control [22] was 0.9 fold. The Kd [23] was 160 nM, the Kd [24] was 60 nM and the IIaR-fold [25] was 1.9 fold. It also gave an IIb Selectivity [26] of 12.5 fold and an IIb-Fold [27] of 24.1 fold.
For “v12, IIb-specific comparator with symmetrical E233D_G237D_P238D_H268D_P271G_A330R (antibody)”, the ELISA (% of non-competed FcγRIIb signal in presence of 10x FcγRIIa) [28] was 100%, the IIb-Fold [29] was 112 fold and the IIaR-fold [30] was 1.4 fold. For the same substance, the Kd [31] was 13 nM, the Kd [32] was 220 nM and the IIb Selectivity [33] was 80.5 fold.
“Variant 16463, wild-type control one-armed trastuzumab antibody with heterodimeric IgG1 Fc” gave an IIb/IIaR Selectivity (IIb-Fold/IIaR-Fold) [34] of 1, an IIaR-fold (fold change in affinity over wild-type) [35] of 1 fold and an IIb-fold (fold change in affinity over wild-type) [36] of 1 fold.
“v16463, wild-type one-armed trastuzumab antibody (OAA format)” was tested, and the Kd (FcγRIIb) was 1400 nM and the Kd (FcγRIIaR) was 310 nM.
